Test results reported in patent US20030109431A1.
Where no end group is shown, it is not given here. The star is where a group is joined. Biotin = O=C1N[C@H]2[C@H](CS[C@H]2CCCCC(=O)*)N1

Key:
[1] = molecular target: ICAM-1 (Intercellular Adhesion Molecule-1) (human) (UniProt P05362); assay: cell-based or functional assay
[2] = molecular target: specific cell surface receptor of synovial cells (unidentified), on human RA synovial fibroblasts (human); assay: flow cytometry competition on synovial cells, unlabeled Fgn 2.5 mg for 3 h then labeled SAC[KBtn] 1 h; signal is of bound SAC[KBtn]
[3] = molecular target: specific cell surface receptor of synovial cells (unidentified), on human RA synovial fibroblasts (human); assay: flow cytometry competition on synovial cells, unlabeled GPRP 2.5 mg for 3 h then labeled SAC[KBtn] 1 h; signal is of bound SAC[KBtn]
[4] = molecular target: specific cell surface receptor of synovial cells (unidentified), on human RA synovial fibroblasts (human); assay: flow cytometry competition on synovial cells, unlabeled SAC 2.5 mg for 3 h then labeled SAC[KBtn] 1 h; signal is of bound SAC[KBtn]
[5] = molecular target: specific cell surface receptor of synovial cells (unidentified), on human RA synovial fibroblasts (human); assay: flow cytometry on RA #16 synovial fibroblasts, 100 ug control peptide, avidin-FITC detection (avidin-FITC alone 3.6 %)
[6] = molecular target: specific cell surface receptor of synovial cells (unidentified), on human RA synovial fibroblasts (human); assay: flow cytometry on RA #16 synovial fibroblasts, 100 ug control peptide, avidin-FITC detection (avidin-FITC alone 13.71)
[7] = molecular target: specific cell surface receptor of synovial cells (unidentified), on human RA synovial fibroblasts (human); assay: flow cytometry on synovial cells, SAC[KBtn] 1 h without competitor, avidin-FITC detection (avidin-FITC alone 20.16)
[8] = molecular target: specific cell surface receptor of synovial cells (unidentified), on human RA synovial fibroblasts (human); assay: flow cytometry on RA #16 synovial fibroblasts, 100 ug peptide, avidin-FITC detection (avidin-FITC alone 3.6 %)
[9] = molecular target: specific cell surface receptor of synovial cells (unidentified), on human RA synovial fibroblasts (human); assay: flow cytometry on RA #16 synovial fibroblasts, 200 ug peptide, avidin-FITC detection (avidin-FITC alone 3.6 %)
[10] = molecular target: specific cell surface receptor of synovial cells (unidentified), on human RA synovial fibroblasts (human); assay: flow cytometry on RA #16 synovial fibroblasts, 100 ug peptide, avidin-FITC detection (avidin-FITC alone 13.71)
[11] = molecular target: specific cell surface receptor of synovial cells (unidentified), on human RA synovial fibroblasts (human); assay: flow cytometry on RA #16 synovial fibroblasts, 200 ug peptide, avidin-FITC detection (avidin-FITC alone 13.71)

Sequence of ICAM-1 (Intercellular Adhesion Molecule-1) (human) (P05362 28-532): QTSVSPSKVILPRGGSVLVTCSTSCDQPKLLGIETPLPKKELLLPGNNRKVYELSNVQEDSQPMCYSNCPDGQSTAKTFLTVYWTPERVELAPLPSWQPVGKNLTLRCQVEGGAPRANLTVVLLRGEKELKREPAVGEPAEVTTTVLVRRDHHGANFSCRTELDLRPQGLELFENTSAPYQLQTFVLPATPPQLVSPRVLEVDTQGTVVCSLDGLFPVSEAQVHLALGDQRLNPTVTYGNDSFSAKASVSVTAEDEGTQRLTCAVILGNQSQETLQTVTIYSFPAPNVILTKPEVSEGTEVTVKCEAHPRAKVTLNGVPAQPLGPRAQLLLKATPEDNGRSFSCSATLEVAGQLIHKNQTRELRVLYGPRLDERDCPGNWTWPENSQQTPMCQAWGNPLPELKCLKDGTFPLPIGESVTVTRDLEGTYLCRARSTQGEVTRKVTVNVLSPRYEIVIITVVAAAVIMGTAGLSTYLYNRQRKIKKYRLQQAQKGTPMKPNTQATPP

## T-cell LFA-1 (from UniProt P20701 26-1170; P05107 23-769) (receptor)
[1]
  adherent T cell numbers, Foreskin line, GPRP 0.1 mg/ml: 51 T cells
  adherent T cell numbers, Foreskin line, GPRP 1 mg/ml: 54 T cells
  adherent T cell numbers, Foreskin line, IL-1 beta 1 ng/ml: 94 T cells
  adherent T cell numbers, Foreskin line, control: 47 T cells
  adherent T cell numbers, OA line 15, GPRP 0.1 mg/ml: 92 T cells
  adherent T cell numbers, OA line 15, GPRP 1 mg/ml: 113 T cells
  adherent T cell numbers, OA line 15, IL-1 beta 1 ng/ml: 66 T cells
  adherent T cell numbers, OA line 15, control: 35 T cells
  adherent T cell numbers, RA line 7, GPRP 0.1 mg/ml: 184 T cells
  adherent T cell numbers, RA line 7, GPRP 1 mg/ml: 153 T cells
  adherent T cell numbers, RA line 7, IL-1 beta 1 ng/ml: 116 T cells
  adherent T cell numbers, RA line 7, control: 80 T cells
  adherent T cell numbers, RA line 8, GPRP 0.1 mg/ml: 99 T cells
  adherent T cell numbers, RA line 8, GPRP 1 mg/ml: 97 T cells
  adherent T cell numbers, RA line 8, IL-1 beta 1 ng/ml: 58 T cells
  adherent T cell numbers, RA line 8, control: 29 T cells

## unlabeled fibrinogen (from UniProt P02671 20-629; P02675 31-491; P02679 27-437)
[2]
  Mean: 21.6

## H-GPRP-OH [synthetic tetrapeptide Gly-Pro-Arg-Pro]
[3]
  Mean: 33.6

## GPRVVERHQSAC [unlabeled …]
[4]
  Mean: 36.3

## GHRPLDKKREEK(Biotin)
[5]
  % Cells Positive: 10.6%
[6]
  Mean Fluorescent Channel: 20.4

## GPRVVERHQSACK(Biotin) [biotinylated amino acid sequence 17-28 of human fibrinogen Aα chain, …[KBtn]]
[7]
  Mean: 51.2
[8]
  % Cells Positive: 86.3%
[9]
  % Cells Positive: 80%
[10]
  Mean Fluorescent Channel: 258
[11]
  Mean Fluorescent Channel: 125
